Measured values from patent US20210230272A1.

Key:
[1] = target: IL10 antibody (Sino biological, Cat #SEKA10947); assay: ELISA, same conditions as the antigen-coated ELISA
human PD-L1 (human) [2] = target: human PD-L1 (human) (UniProt Q9NZQ7); assay: ELISA, PD-L1 coated; control of LB319
human PD-L1 (human) [3] = target: human PD-L1 (human) (UniProt Q9NZQ7); assay: ELISA, PD-L1 coated; control of LB320
mice CLDN18.2 (mice) = mice CLDN18.2 (mice) (UniProt P56857); assay: cell ELISA, mCLDN18.2+ cells
human CLDN18.2 (human) [4] = target: human CLDN18.2 (human) (UniProt P56856); assay: flow cytometry, CF488 labeled antibody 1 µg/ml, hCLDN18.2+ cells
human CLDN18.2 (human) [5] = target: human CLDN18.2 (human) (UniProt P56856); assay: flow cytometry, CF633 labeled antibody 1 µg/ml, hCLDN18.2+ cells
human CLDN18.2 (human) [6] = target: human CLDN18.2 (human) (UniProt P56856); assay: flow cytometry, CF488 labeled antibody 10 µg/ml, hCLDN18.2+ cells
human CLDN18.2 (human) [7] = target: human CLDN18.2 (human) (UniProt P56856); assay: flow cytometry, CF633 labeled antibody 10 µg/ml, hCLDN18.2+ cells

human PD-L1 (human), sequence (Q9NZQ7 19-238): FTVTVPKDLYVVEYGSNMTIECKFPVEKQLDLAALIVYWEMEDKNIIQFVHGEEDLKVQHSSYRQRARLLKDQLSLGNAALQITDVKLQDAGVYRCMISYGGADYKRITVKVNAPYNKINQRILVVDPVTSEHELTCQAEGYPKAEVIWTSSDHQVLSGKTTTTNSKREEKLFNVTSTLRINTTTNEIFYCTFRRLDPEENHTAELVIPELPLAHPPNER

IL10 (Peprotech, Cat #: 200-10) (from UniProt P22301 19-178) (ligand)
EC50 [1]: 4.53 nM

LB318 (Durvalumab) (antibody)
EC50 (human PD-L1 (human) [2]): 0.072 nM | EC50 (human PD-L1 (human) [3]): 0.072 nM

Neg IgG (antibody)
Emax (mice CLDN18.2 (mice)): 0.19 | Binding value (FACS fluorescence intensity) (human CLDN18.2 (human) [4]): 1750 | Binding value (FACS fluorescence intensity) (human CLDN18.2 (human) [5]): 23 | Binding value (FACS fluorescence intensity) (human CLDN18.2 (human) [6]): 3480 | Binding value (FACS fluorescence intensity) (human CLDN18.2 (human) [7]): 23.2
